According to article PMC7840129, “Structural basis for heme-dependent NCoR binding to the transcriptional repressor REV-ERBβ” (Science Advances, 2021):

Target: T1, heme-bound REV-ERBβ LBD (Homo sapiens, UniProt Q14995)
T1 construct: The human REV-ERBβ LBD (residues 381 to 579) was previously cloned; 6xHis with 3C protease cleavage site (N, cleaved yes); made in house; host or cells: E. coli BL21(DE3)
T1 sequence (Q14995 381-579): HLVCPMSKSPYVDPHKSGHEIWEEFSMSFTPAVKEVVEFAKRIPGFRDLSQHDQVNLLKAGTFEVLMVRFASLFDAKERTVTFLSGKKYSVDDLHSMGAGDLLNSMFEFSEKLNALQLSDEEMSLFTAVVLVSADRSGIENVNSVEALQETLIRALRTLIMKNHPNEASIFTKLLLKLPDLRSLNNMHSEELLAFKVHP
Assay: ITC, NCoR RID constructs with heme-bound REV-ERBβ LBD
Format: binding
Description: Human REV-ERBβ LBD was expressed in BL21(DE3) Escherichia coli cells with an N-terminal hexahistidine (6xHis) tag separated by a 3C protease cleavage site. Expression was performed using auto-induction media: Cells were grown at 37°C for 5 hours, 30°C for 1 hour, and 18°C for 16 hours before harvesting by centrifugation. Pellets were resuspended in potassium phosphate lysis buffer [40 mM potassium phosphate (pH 7.4), 500 mM KCl, 15 mM imidazole, and 1 mM dithiothreitol (DTT)] supplemented with leupeptin, pepstatin A, lysozyme, and deoxyribonuclease (DNase) I and sonicated on ice. […] A 5-ml aliquot of 6xHis-tagged protein was purified by size exclusion chromatography using a Superdex 75 column equilibrated in time-resolved fluorescence energy transfer (TR-FRET) assay buffer [20 mM potassium phosphate (pH 7.4), 50 mM KCl, and 0.5 mM EDTA]; purified aliquots were stored at −80°C for TR-FRET assays. To cleave the 6xHis tag from the remaining protein, it was incubated overnight with 3C protease (generated in-house) via dialysis; then, protein was reloaded onto the HisTrap columns, and the flow-through was collected. Last, aggregates were removed by size exclusion chromatography using a Superdex 75 column and Hepes gel filtration buffer [20 mM Hepes (pH 7.4), 50 mM KCl, and 0.5 mM EDTA]. Greater than 95% purity was confirmed by SDS-PAGE. Protein was aliquoted and stored at −80°C.
ITC experiments were performed using a MicroCal iTC200. All experiments were solvent-matched and contained 0.1% DMSO (peptide vehicle) and 0.2% 0.2 M solution of NaOH (heme vehicle) final concentrations. NITPIC software ([37]) was used to calculate baselines and integrate curves and prepare experimental data for fitting in SEDPHAT, which was used to generate final binding affinity and thermodynamic parameter measurements ([38]).Final figures were exported to GUSSI for publication-quality figure preparation ([39]).
NCoR RID constructs (WT, ΔID1, ΔID2, or ΔID1ΔID2) were prepared in assay buffer at 15 μM, and REV-ERBβ LBD was prepared at 300 μM. REV-ERBβ LBD in the syringe was titrated into the RID in the sample cell as described above, with the exception that a total of 4 molar equivalents were titrated over 20 injections. […] For apo LBD into WT RID, data were fit to A + B ↔ AB + B ↔ BA + A ↔ BAB, with two nonsymmetric sites, microscopic K model in SEDPHAT. For apo LBD into ΔID2, data were fit to an A + B ↔ AB hetero-association model in SEDPHAT. For heme-bound LBD into WT RID, data were fit to an A + B ↔ AB hetero-association model in SEDPHAT.
NCoR RID constructs (including WT, ΔID1, ΔID2, and ΔID1ΔID2) were transformed into BL21(DE3) E. coli cells, which were grown in 2 liters of Terrific Broth media [yeast extract (24 g/liter), tryptone (12 g/liter), KH2PO4 ([…]), K2HPO4 ([…]), and glycerol (4 ml/liter)] at 37°C until OD600 reached 0.7 to 0.8. Expression was induced with 0.75 mM IPTG for 2 hours at 37°C before cells were harvested by centrifugation. Pellets were washed 1× with phosphate-buffered saline and stored at −80°C until purification. Pellets were resuspended on ice in Hepes lysis buffer [25 mM Hepes (pH 7.4), 150 mM NaCl, 2 M urea, and 15 mM imidazole] supplemented with 1 mM DTT, pepstatin A, leupeptin, lysozyme, DNase I, phenylmethylsulfonyl fluoride, and 0.1% Tween 20, and cell slurry was sonicated on ice. […]

[1] = +Heme LBD, WT RID, 25°C, A + B ↔ AB model, 95% CI

B1: WT RID: mouse NCoR RID (residues 1942 to 2208 in the X50 splice variant) (protein, UniProt Q60974 1942-2208, looked up, fragment)
chain: TITAANFIDVIITRQIASDKDARERGSQSSDSSSSLSSHRYETASDAIEVISPASSPAPPQEKPQAYQPDMVKANQAENESTRQYEGPLHHYRSQQESPSPQQQPPLPPSSQSEGMGQVPRTHRLITLADHICQIITQDFARNQVPSQASTSTFQTSPSALSSTPVRTKTSSRYSPESQSQTVLHPRPGPRVSPENLVDKSRGSRPGKSPERSHIPSEPYEPISPPQGPAVHEKQDSMLLLSQRGVDPAEQRSDSRSPGSISYLPSF
modifications: X50 splice variant
TΔS [1]: 46.9 kJ/mol
ΔG [1]: -40.2 kJ/mol
ΔH [1]: 7.11 kJ/mol
Kd (+Heme LBD, WT RID, LBD 300 μM into 15 μM RID, pH 7.4, 25°C, A + B ↔ AB hetero-association model, 95% CI): 0.099 µM
RID binding to heme-bound LBD (in words) (heme-bound LBD, RID mutants and WT): must involve positive cooperativity
